Measurements reported in the supplement of paper PMC5998384.

Tests used:
HeLa Kyoto [1] = test: solubility in G1/S (NP-40 vs SDS abundance) (log2 ratio); higher = more soluble; settings: cell cycle stage: G1/S
HeLa Kyoto [2] = test: melting temperature (median over replicates), in situ; higher = more thermally stable
HeLa Kyoto [3] = test: solubility change mitosis vs G1/S (difference of NP-40 vs SDS log2 ratios) (log2 ratio difference); higher = more soluble in mitosis
HeLa Kyoto [4] = test: thermal stability score vs G1/S (z-score of summed log2 fold changes over temperatures); higher = more thermally stable than in G1/S
[5] = cell cycle stage: early G1 (4.5 h after nocodazole release)
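For melting temperature (median over replicates), in situ in this document: HeLa Kyoto cells synchronized by double thymidine or nocodazole block, proteins quantified by TMT10plex mass spectrometry, three independent biological replicates.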
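For solubility change mitosis vs G1/S (difference of NP-40 vs SDS log2 ratios) in this document: synchronized HeLa Kyoto cells (double thymidine block for G1/S, nocodazole release for mitosis), protein amounts in NP-40 versus SDS lysates quantified by mass spectrometry, three biological replicates.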
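For solubility in G1/S (NP-40 vs SDS abundance) in this document: HeLa Kyoto cells arrested at G1/S by double thymidine block, proteins quantified by TMT10plex mass spectrometry in mild NP-40 versus SDS extracts, three biological replicates.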
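For thermal stability score vs G1/S (z-score of summed log2 fold changes over temperatures) in this document: synchronized HeLa Kyoto cells, proteins quantified by TMT10plex mass spectrometry, three biological replicates, mitosis taken 0.5 h after nocodazole release, G1/S directly after double thymidine block.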

Sequence | solubility in G1/S (log2) (HeLa Kyoto [1]) | melting temperature (HeLa Kyoto [2]; cell cycle stage: G1/S) [°C] | melting temperature (HeLa Kyoto [2]; cell cycle stage: mitosis) [°C] | solubility change mitosis (log2) (HeLa Kyoto [3]) | thermal stability score (HeLa Kyoto [4]; [5]) | thermal stability score (HeLa Kyoto [4]; cell cycle stage: mitosis)
MKVVNLKQAILQAWKERWSDYQWAINMKKFFPKGATWDILNLADALLEQAMIGPSPNPLILSYLKYAISSQMVSYSSVLTAISKFDDFSRDLCVQALLDIMDMFCDRLSCHGKAEECIGLCRALLSALHWLLRCTAASAERLREGLEAGTPAAGEKQLAMCLQRLEKTLSSTKNRALLHIAKLEEASSWTAIEHSLLKLGEILANLSNPQLRSQAEQCGTLIRSIPTMLSVHAEQMHKTGFPTVHAVILLEGTMNLTGETQSLVEQLTMVKRMQHIPTPLFVLEIWKACFVGLIESPEGTEELKWTAFTFLKIPQVLVKLKKYSHGDKDFTEDVNCAFEFLLKLTPLLDKADQRCNCDCTNFLLQECGKQGLLSEASVNNLMAKRKADREHAPQQKSGENANIQPNIQLILRAEPTVTNILKTMDADHSKSPEGLLGVLGHMLSGKSLDLLLAAAAATGKLKSFARKFINLNEFTTYGSEESTKPASVRALLFDISFLMLCHVAQTYGSEVILSESRTGAEVPFFETWMQTCMPEEGKILNPDHPCFRPDSTKVESLVALLNNSSEMKLVQMKWHEACLSISAAILEILNAWENGVLAFESIQKITDNIKGKVCSLAVCAVAWLVAHVRMLGLDEREKSLQMIRQLAGPLFSENTLQFYNERVVIMNSILERMCADVLQQTATQIKFPSTGVDTMPYWNLLPPKRPIKEVLTDIFAKVLEKGWVDSRSIHIFDTLLHMGGVYWFCNNLIKELLKETRKEHTLRAVELLYSIFCLDMQQVTLVLLGHILPGLLTDSSKWHSLMDPPGTALAKLAVWCALSSYSSHKGQASTRQKKRHREDIEDYISLFPLDDVQPSKLMRLLSSNEDDANILSSPTDRSMSSSLSASQLHTVNMRDPLNRVLANLFLLISSILGSRTAGPHTQFVQWFMEECVDCLEQGGRGSVLQFMPFTTVSELVKVSAMSSPKVVLAITDLSLPLGRQVAAKAIAAL [MED24] | -0.322 | 50.8 | 52.2 | 0.0385 | 1.11 | 1.86
MKYILVTGGVISGIGKGIIASSIGTILKSCGLRVTAIKIDPYINIDAGTFSPYEHGEVFVLNDGGEVDLDLGNYERFLDINLYKDNNITTGKIYQHVINKERRGDYLGKTVQVVPHITDAVQEWVMNQAKVPVDGNKEEPQICVIELGGTIGDIEGMPFVEAFRQFQFKAKRENFCNIHVSLVPQLSATGEQKTKPTQNSVRALRGLGLSPDLIVCRSSTPIEMAVKEKISMFCHVNPEQVICIHDVSSTYRVPVLLEEQSIVKYFKERLHLPIGDSASNLLFKWRNMADRYERLQKICSIALVGKYTKLRDCYASVFKALEHSALAINHKLNLMYIDSIDLEKITETEDPVKFHEAWQKLCKADGILVPGGFGIRGTLGKLQAISWARTKKIPFLGVCLGMQLAVIEFARNCLNLKDADSTEFRPNAPVPLVIDMPEHNPGNLGGTMRLGIRRTVFKTENSILRKLYGDVPFIEERHRHRFEVNPNLIKQFEQNDLSFVGQDVDGDRMEIIELANHPYFVGVQFHPEFSSRPMKPSPPYLGLLLAATGNLNAYLQQGCKLSSSDRYSDASDDSFSEPRIAELEIS [CTPS2] | 0.0287 | 57.1 | 57.2 | -0.0719 | -2.15 | -1.98
MLAFAARTVVKPLGFLKPFSLMKASSRFKAHQDALPRLPVPPLQQSLDHYLKALQPIVSEEEWAHTKQLVDEFQASGGVGERLQKGLERRARKTENWLSEWWLKTAYLQYRQPVVIYSSPGVMLPKQDFVDLQGQLRFAAKLIEGVLDFKVMIDNETLPVEYLGGKPLCMNQYYQILSSCRVPGPKQDTVSNFSKTKKPPTHITVVHNYQFFELDVYHSDGTPLTADQIFVQLEKIWNSSLQTNKEPVGILTSNHRNSWAKAYNTLIKDKVNRDSVRSIQKSIFTVCLDATMPRVSEDVYRSHVAGQMLHGGGSRLNSGNRWFDKTLQFIVAEDGSCGLVYEHAAAEGPPIVTLLDYVIEYTKKPELVRSPLVPLPMPKKLRFNITPEIKSDIEKAKQNLSIMIQDLDITVMVFHHFGKDFPKSEKLSPDAFIQMALQLAYYRIYGQACATYESASLRMFHLGRTDTIRSASMDSLTFVKAMDDSSVTEHQKVELLRKAVQAHRGYTDRAIRGEAFDRHLLGLKLQAIEDLVSMPDIFMDTSYAIAMHFHLSTSQVPAKTDCVMFFGPVVPDGYGVCYNPMEAHINFSLSAYNSCAETNAARLAHYLEKALLDMRALLQSHPRAKL [CRAT] | -0.0625 | 49.4 | 49.4 | -0.142 | 1.13 | 1.4
MLAVHFDKPGGPENLYVKEVAKPSPGEGEVLLKVAASALNRADLMQRQGQYDPPPGASNILGLEASGHVAELGPGCQGHWKIGDTAMALLPGGGQAQYVTVPEGLLMPIPEGLTLTQAAAIPEAWLTAFQLLHLVGNVQAGDYVLIHAGLSGVGTAAIQLTRMAGAIPLVTAGSQKKLQMAEKLGAAAGFNYKKEDFSEATLKFTKGAGVNLILDCIGGSYWEKNVNCLALDGRWVLYGLMGGGDINGPLFSKLLFKRGSLITSLLRSRDNKYKQMLVNAFTEQILPHFSTEGPQRLLPVLDRIYPVTEIQEAHKYMEANKNIGKIVLELPQ [TP53I3] | 0.373 | 58.7 | 57.3 | -0.199 | -2.64 | -1.51
MLCWGNASFGQLGLGGIDEEIVLEPRKSDFFINKRVRDVGCGLRHTVFVLDDGTVYTCGCNDLGQLGHEKSRKKPEQVVALDAQNIVAVSCGEAHTLALNDKGQVYAWGLDSDGQLGLVGSEECIRVPRNIKSLSDIQIVQVACGYYHSLALSKASEVFCWGQNKYGQLGLGTDCKKQTSPQLLKSLLGIPFMQVAAGGAHSFVLTLSGAIFGWGRNKFGQLGLNDENDRYVPNLLKSLRSQKIVYICCGEDHTAALTKEGGVFTFGAGGYGQLGHNSTSHEINPRKVFELMGSIVTEIACGRQHTSAFVPSSGRIYSFGLGGNGQLGTGSTSNRKSPFTVKGNWYPYNGQCLPDIDSEEYFCVKRIFSGGDQSFSHYSSPQNCGPPDDFRCPNPTKQIWTVNEALIQKWLSYPSGRFPVEIANEIDGTFSSSGCLNGSFLAVSNDDHYRTGTRFSGVDMNAARLLFHKLIQPDHPQISQQVAASLEKNLIPKLTSSLPDVEALRFYLTLPECPLMSDSNNFTTIAIPFGTALVNLEKAPLKVLENWWSVLEPPLFLKIVELFKEVVVHLLKLYKIGIPPSERRIFNSFLHTALKVLEILHRVNEKMGQIIQYDKFYIHEVQELIDIRNDYINWVQQQAYGMDVNHGLTELADIPVTICTYPFVFDAQAKTTLLQTDAVLQMQMAIDQAHRQNVSSLFLPVIESVNPCLILVVRRENIVGDAMEVLRKTKNIDYKKPLKVIFVGEDAVDAGGVRKEFFLLIMRELLDPKYGMFRYYEDSRLIWFSDKTFEDSDLFHLIGVICGLAIYNCTIVDLHFPLALYKKLLKKKPSLDDLKELMPDVGRSMQQLLDYPEDDIEETFCLNFTITVENFGATEVKELVLNGADTAVNKQNRQEFVDAYVDYIFNKSVASLFDAFHAGFHKVCGGKVLLLFQPNELQAMVIGNTNYDWKELEKNTEYKGEYWAEHPTIKIFWEVFHELPLEKKKQFLLFLTGSDRIPILGMKSLKLVIQSTGGGEEYLPVSHTCFNLLDLPKYTEKETLRSKLIQAIDHNEGFSLI [HERC4] | -0.169 | 51.4 | 51 | -0.179 | -0.179 | -0.361
MLDFAIFAVTFLLALVGAVLYLYPASRQAAGIPGITPTEEKDGNLPDIVNSGSLHEFLVNLHERYGPVVSFWFGRRLVVSLGTVDVLKQHINPNKTSDPFETMLKSLLRYQSGGGSVSENHMRKKLYENGVTDSLKSNFALLLKLSEELLDKWLSYPETQHVPLSQHMLGFAMKSVTQMVMGSTFEDDQEVIRFQKNHGTVWSEIGKGFLDGSLDKNMTRKKQYEDALMQLESVLRNIIKERKGRNFSQHIFIDSLVQGNLNDQQILEDSMIFSLASCIITAKLCTWAICFLTTSEEVQKKLYEEINQVFGNGPVTPEKIEQLRYCQHVLCETVRTAKLTPVSAQLQDIEGKIDRFIIPRETLVLYALGVVLQDPNTWPSPHKFDPDRFDDELVMKTFSSLGFSGTQECPELRFAYMVTTVLLSVLVKRLHLLSVEGQVIETKYELVTSSREEAWITVSKRY [CYP20A1] | -0.178 | 54.4 | 55.1 | -0.0969 | 0.229 | -1.11
MLDFLAENNLCGQAILRIVSCGNAIIAELLRLSEFIPAVFRLKDRADQQKYGDIIFDFSYFKGPELWESKLDAKPELQDLDEEFRENNIEIVTRFYLAFQSVHKYIVDLNRYLDDLNEGVYIQQTLETVLLNEDGKQLLCEALYLYGVMLLVIDQKIEGEVRERMLVSYYRYSAARSSADSNMDDICKLLRSTGYSSQPGAKRPSNYPESYFQRVPINESFISMVIGRLRSDDIYNQVSAYPLPEHRSTALANQAAMLYVILYFEPSILHTHQAKMREIVDKYFPDNWVISIYMGITVNLVDAWEPYKAAKTALNNTLDLSNVREQASRYATVSERVHAQVQQFLKEGYLREEMVLDNIPKLLNCLRDCNVAIRWLMLHTADSACDPNNKRLRQIKDQILTDSRYNPRILFQLLLDTAQFEFILKEMFKQMLSEKQTKWEHYKKEGSERMTELADVFSGVKPLTRVEKNENLQAWFREISKQILSLNYDDSTAAGRKTVQLIQALEEVQEFHQLESNLQVCQFLADTRKFLHQMIRTINIKEEVLITMQIVGDLSFAWQLIDSFTSIMQESIRVNPSMVTKLRATFLKLASALDLPLLRINQANSPDLLSVSQYYSGELVSYVRKVLQIIPESMFTSLLKIIKLQTHDIIEVPTRLDKDKLRDYAQLGPRYEVAKLTHAISIFTEGILMMKTTLVGIIKVDPKQLLEDGIRKELVKRVAFALHRGLIFNPRAKPSELMPKLKELGATMDGFHRSFEYIQDYVNIYGLKIWQEEVSRIINYNVEQECNNFLRTKIQDWQSMYQSTHIPIPKFTPVDESVTFIGRLCREILRITDPKMTCHIDQLNTWYDMKTHQEVTSSRLFSEIQTTLGTFGLNGLDRLLCFMIVKELQNFLSMFQKIILRDRTVQDTLKTLMNAVSPLKSIVANSNKIYFSAIAKTQKIWTAYLEAIMKVGQMQILRQQIANELNYSCRFDSKHLAAALENLNKALLADIEAHYQDPSLPYPKEDNTLLYEITAYLEAAGIHNPLNKIYITTKRLPYFPIVNFLFLIAQLPKLQYNKNLGMVCRKPTDPVDWPPLVLGLLTLLKQFHSRYTEQFLALIGQFICSTVEQCTSQKIPEIPADVVGALLFLEDYVRYTKLPRRVAEAHVPNFIFDEFRTVL [KIAA0196] | -0.217 | 50.7 | 50 | -0.117 | 0.232 | -0.00652
MLERPPALAMPMPTEGTPPPLSGTPIPVPAYFRHAEPGFSLKRPRGLSRSLPPPPPAKGSIPISRLFPPRTPGWHQLQPRRVSFRGEASETLQSPGYDPSRPESFFQQSFQRLSRLGHGSYGEVFKVRSKEDGRLYAVKRSMSPFRGPKDRARKLAEVGSHEKVGQHPCCVRLEQAWEEGGILYLQTELCGPSLQQHCEAWGASLPEAQVWGYLRDTLLALAHLHSQGLVHLDVKPANIFLGPRGRCKLGDFGLLVELGTAGAGEVQEGDPRYMAPELLQGSYGTAADVFSLGLTILEVACNMELPHGGEGWQQLRQGYLPPEFTAGLSSELRSVLVMMLEPDPKLRATAEALLALPVLRQPRAWGVLWCMAAEALSRGWALWQALLALLCWLWHGLAHPASWLQPLGPPATPPGSPPCSLLLDSSLSSNWDDDSLGPSLSPEAVLARTVGSTSTPRSRCTPRDALDLSDINSEPPRGSFPSFEPRNLLSLFEDTLDPT [PKMYT1] | 0.406 | 48.7 | 49 | -0.332 | 0.535 | 0.495
MLETLRERLLSVQQDFTSGLKTLSDKSREAKVKSKPRTVPFLPKYSAGLELLSRYEDTWAALHRRAKDCASAGELVDSEVVMLSAHWEKKKTSLVELQEQLQQLPALIADLESMTANLTHLEASFEEVENNLLHLEDLCGQCELERCKHMQSQQLENYKKNKRKELETFKAELDAEHAQKVLEMEHTQQMKLKERQKFFEEAFQQDMEQYLSTGYLQIAERREPIGSMSSMEVNVDMLEQMDLMDISDQEALDVFLNSGGEENTVLSPALGPESSTCQNEITLQVPNPSELRAKPPSSSSTCTDSATRDISEGGESPVVQSDEEEVQVDTALATSHTDREATPDGGEDSDS [DTNBP1] | 0.267 | 54.1 | – | -0.387 | -0.457 | -0.463
